How the values were obtained:
[1] = target: T1, Human glypican-3 on cells (Huh7, Hep3B, H446, HepG2; Hep3B xenograft tissue) (UniProt P51654 25-554); test: flow cytometry; H446 cells
[2] = target: T1, Human glypican-3 on cells (Huh7, Hep3B, …); test: flow cytometry; Hep3B cells

T1 sequence (P51654 25-554): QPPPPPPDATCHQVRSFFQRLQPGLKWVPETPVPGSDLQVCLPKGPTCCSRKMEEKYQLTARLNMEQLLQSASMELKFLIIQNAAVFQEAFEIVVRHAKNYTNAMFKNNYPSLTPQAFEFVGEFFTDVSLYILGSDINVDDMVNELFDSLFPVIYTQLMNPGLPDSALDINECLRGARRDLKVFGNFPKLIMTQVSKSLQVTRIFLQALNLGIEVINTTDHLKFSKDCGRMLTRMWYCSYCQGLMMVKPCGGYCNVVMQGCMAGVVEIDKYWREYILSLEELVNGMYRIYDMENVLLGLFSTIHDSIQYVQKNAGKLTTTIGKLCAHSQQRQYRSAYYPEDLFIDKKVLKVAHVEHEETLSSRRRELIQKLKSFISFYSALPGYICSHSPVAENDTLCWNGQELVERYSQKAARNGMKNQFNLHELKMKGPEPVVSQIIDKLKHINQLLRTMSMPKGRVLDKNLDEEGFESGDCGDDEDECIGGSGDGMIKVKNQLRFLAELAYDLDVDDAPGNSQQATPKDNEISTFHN

EC50 [1] [pM] | EC50 [2] [pM] | Binder
386 | 664 | ADX_6077_F02 tubulysin analog drug conjugate DAR1 (designed binder, tubulysin analog-linker (formula IV) on the cysteine of the C-terminal PC via maleimide) MGVSDVPRDLEVVAATPTSLLISWSDDYHAHRYYRITYGETGGNSPVQEFTVPGEHVTATISGLKPGVDYTITVYAVTYDGEKAATDWSISINYRTPCHHHHHH
573 | 537 | ADX_6912_G02 tubulysin analog drug conjugate DAR2 (designed binder, tubulysin analog-linker (formula IV) on each of the two cysteines of the C-terminal PCPPPPPC) MGVSDVPRDLEVVAATPTSLLISWSDDYHAHRYYRITYGETGGNSPVQEFTVPGEHVTATISGLKPGVDYTITVYAVTYDGEKAATDWSISINYRTPCPPPPPCHHHHHH
